Laboratory results published in the RNAGym collection of RNA variant scans (doi:10.7554/elife.80360).

B1: Hairpin Ribozyme (parent)
chain: GUCCUCUUUCACGUGCGCGUGAAAGAGAGAAGUGAACCAGAGAAACACACGUUGUGGUAUAUUACCUGGUA

Variants of: B1
Experiment: self-cleavage, relative activity (ratio to wild type); higher = more cleavage; co-transcriptional

Compared with G25C U62A, G27C A64G is lower in self-cleavage: 0.188 for the first, 0.186 for the second.

First: A26C C37U
Second: G25A A45C
The self-cleavage of the first is higher: 0.446 for the first, 0.109 for the second.

First: A26G A30U
Second: A26G A45G
The self-cleavage of the first is lower: 0.108 for the first, 0.132 for the second.

Going from A26U C38A to G27C A71G, the self-cleavage falls from 0.188 to 0.143.

Compared with G27C A71U, A26U U58A is higher in self-cleavage: 0.178 for the first, 0.391 for the second.

Going from G27C A31U to G25U A47G, the self-cleavage falls from 0.223 to 0.0793.

First: G25U A47C
Second: G27C A47C
The self-cleavage of the first is higher: 0.241 for the first, 0.0432 for the second.

Compared with G25A C37A, G25A C37G is lower in self-cleavage: 0.199 for the first, 0.134 for the second.

Going from G25C A36U to G25C G54U, the self-cleavage falls from 0.397 to 0.245.

Compared with G25C G54A, A26C A28C is higher in self-cleavage: 0.239 for the first, 0.329 for the second.

Compared with G27C C65A, A26U A30G is lower in self-cleavage: 0.146 for the first, 0.142 for the second.

Compared with A26U G68C, A26U G68U is higher in self-cleavage: 0.103 for the first, 0.207 for the second.

First: A26C A43U
Second: A26C A43G
The self-cleavage of the first is higher: 0.224 for the first, 0.144 for the second.

Going from A26G A59G to A26G A59C, the self-cleavage rises from 0.158 to 0.162.

Compared with G25C U55G, G25C U55A is higher in self-cleavage: 0.13 for the first, 0.163 for the second.

First: G25C U55C
Second: A24U U60C
The self-cleavage of the first is lower: 0.108 for the first, 1.09 for the second.

First: G25A U67G
Second: G25A U67C
The self-cleavage of the first is higher: 0.176 for the first, 0.166 for the second.

Compared with G27A A47G, A26U A31U is lower in self-cleavage: 0.129 for the first, 0.0397 for the second.

Compared with A26U A31G, A26G U52A is higher in self-cleavage: 0.389 for the first, 0.896 for the second.

First: A26U G69U
Second: G25U C38U
The self-cleavage of the first is lower: 0.225 for the first, 0.332 for the second.

Going from G25U A36U to G25U A36C, the self-cleavage rises from 0.4 to 0.463.

Going from G25U U60A to G25C A43U, the self-cleavage falls from 0.391 to 0.243.

Compared with G25C A43C, G25C C65U is higher in self-cleavage: 0.0652 for the first, 0.324 for the second.

Going from A26G G34C to G25A U60G, the self-cleavage falls from 1.01 to 0.291.

First: A26U A47G
Second: G25A A47G
The self-cleavage of the first is lower: 0.142 for the first, 0.277 for the second.

Going from A26C A45C to A26G U55A, the self-cleavage rises from 0.155 to 0.283.

First: G27A A28G
Second: G27A A28C
The self-cleavage of the first is higher: 0.36 for the first, 0.295 for the second.

First: G27A G32U
Second: A26U C46A
The self-cleavage of the first is lower: 0.0607 for the first, 0.146 for the second.

Compared with G25C C50G, G25A A61U is lower in self-cleavage: 0.178 for the first, 0.0154 for the second.

Compared with G27A G54A, G27A G54U is lower in self-cleavage: 0.221 for the first, 0.213 for the second.

First: A26G A31C
Second: A26G A31U
The self-cleavage of the first is lower: 0.114 for the first, 0.183 for the second.

First: A26U A35G
Second: G25A A28C
The self-cleavage of the first is higher: 0.786 for the first, 0.394 for the second.

First: G25A A28U
Second: G25A A31G
The self-cleavage of the first is higher: 0.585 for the first, 0.127 for the second.

Going from G25U U53A to G25C U53G, the self-cleavage falls from 0.647 to 0.39.

Going from G25U A26U to A26G A61G, the self-cleavage falls from 0.542 to 0.161.

Compared with A26C G68U, G25A G69A is higher in self-cleavage: 0.186 for the first, 0.238 for the second.

First: G25A G69U
Second: A26U A71C
The self-cleavage of the first is lower: 0.0604 for the first, 1.19 for the second.

First: A26G G29C
Second: A26G G29A
The self-cleavage of the first is lower: 0.139 for the first, 0.159 for the second.

Going from G25A C46A to A26G A49G, the self-cleavage rises from 0.105 to 0.665.

First: G27A U67G
Second: G27A U67A
The self-cleavage of the first is higher: 0.175 for the first, 0.0995 for the second.

First: A26C A64C
Second: G25U A31G
The self-cleavage of the first is lower: 0.216 for the first, 0.385 for the second.

Going from G27A G68A to G25U G34C, the self-cleavage rises from 0.241 to 1.13.

Going from G25U G34U to G25U A61U, the self-cleavage falls from 1.28 to 0.185.

Going from A26C A61G to A26C A61U, the self-cleavage rises from 0.0543 to 0.184.

First: G25A A64G
Second: G27A G69U
The self-cleavage of the first is higher: 0.469 for the first, 0.182 for the second.

Going from G25A U55C to G27C C48U, the self-cleavage rises from 0.208 to 0.231.

Going from G25C A64G to G25C A64C, the self-cleavage falls from 0.4 to 0.0865.

First: A26C U52A
Second: A26C U52G
The self-cleavage of the first is higher: 0.599 for the first, 0.409 for the second.

Going from A26C U70C to G25U G40A, the self-cleavage falls from 0.728 to 0.256.

Compared with G25U G40C, A26C U67C is higher in self-cleavage: 0.131 for the first, 0.21 for the second.

First: A26C U67A
Second: A26C G42A
The self-cleavage of the first is lower: 0.0843 for the first, 0.12 for the second.

First: A26C G42U
Second: G25C C66A
The self-cleavage of the first is higher: 0.307 for the first, 0.133 for the second.

Going from G25C C66U to G25A C50A, the self-cleavage falls from 0.182 to 0.107.

First: A26C U58G
Second: A26C U58C
The self-cleavage of the first is lower: 0.496 for the first, 0.771 for the second.

Going from A26C U58A to G25C A28G, the self-cleavage rises from 0.623 to 0.883.

Going from G25U A35U to G25C C46G, the self-cleavage falls from 0.474 to 0.115.

Going from G25A A49G to G25U U33A, the self-cleavage falls from 0.275 to 0.0923.

Compared with G25U U33C, A26C A71C is higher in self-cleavage: 0.145 for the first, 1.08 for the second.

Going from A26U U63C to G25U U67C, the self-cleavage falls from 0.199 to 0.178.

Compared with G25U U67G, A26C C46U is lower in self-cleavage: 0.18 for the first, 0.172 for the second.

First: G27A A36C
Second: G27A A36G
The self-cleavage of the first is lower: 0.253 for the first, 0.42 for the second.

Going from G27A A39G to G27A A39U, the self-cleavage rises from 0.121 to 0.166.

First: A26G G68C
Second: G25A G29A
The self-cleavage of the first is higher: 0.312 for the first, 0.204 for the second.

Compared with G25A G57C, G25C A35C is higher in self-cleavage: 0.0684 for the first, 0.474 for the second.

Compared with G25C A61C, A26G U63C is higher in self-cleavage: 0.0596 for the first, 0.225 for the second.

First: A26G U63A
Second: A26C U53A
The self-cleavage of the first is lower: 0.101 for the first, 0.521 for the second.

Compared with G25C G34C, G25C G42A is lower in self-cleavage: 0.967 for the first, 0.174 for the second.

First: A26G C46A
Second: A26G C46U
The self-cleavage of the first is lower: 0.0799 for the first, 0.267 for the second.

First: A26U G42A
Second: G25A C38U
The self-cleavage of the first is lower: 0.153 for the first, 0.283 for the second.

Going from A26G U33C to A26G U33G, the self-cleavage rises from 0.0771 to 0.0904.

Compared with A26U G27A, G25C U58G is higher in self-cleavage: 0.228 for the first, 0.403 for the second.

Going from G27C A39C to G25A A44C, the self-cleavage rises from 0.0945 to 0.139.

Going from G25A A44G to G25C C38U, the self-cleavage rises from 0.158 to 0.263.

First: A26U C66G
Second: G25U A45G
The self-cleavage of the first is higher: 0.16 for the first, 0.118 for the second.

Compared with G25U A45U, A26C C65G is higher in self-cleavage: 0.162 for the first, 0.226 for the second.

Going from G25C A44G to G25C A44U, the self-cleavage rises from 0.085 to 0.112.

Compared with A26C A36U, A26C A36G is higher in self-cleavage: 0.556 for the first, 0.846 for the second.

Compared with G25C A59G, G25C C37A is higher in self-cleavage: 0.123 for the first, 0.281 for the second.

First: A26U A59C
Second: G25A G42U
The self-cleavage of the first is lower: 0.137 for the first, 0.186 for the second.

Compared with A26G A39C, A26G C48A is lower in self-cleavage: 0.571 for the first, 0.13 for the second.

First: A26G U67A
Second: A26G U67C
The self-cleavage of the first is lower: 0.148 for the first, 0.263 for the second.

Compared with A26U A39U, G27A C38A is lower in self-cleavage: 0.266 for the first, 0.127 for the second.

First: G27C A41G
Second: G27A G42U
The self-cleavage of the first is higher: 0.234 for the first, 0.147 for the second.

G25A G56U gave a self-cleavage of 0.117.
